Molecular target: C3 convertase complex (UniProt P01024 23-1663; P00751 260-764)
Test: cell-based or functional assay
Wherever C3 convertase activity % of the control is given: test concentration or dose not given here.

C3 convertase complex, sequence (P01024 23-1663, chain 1 of 2): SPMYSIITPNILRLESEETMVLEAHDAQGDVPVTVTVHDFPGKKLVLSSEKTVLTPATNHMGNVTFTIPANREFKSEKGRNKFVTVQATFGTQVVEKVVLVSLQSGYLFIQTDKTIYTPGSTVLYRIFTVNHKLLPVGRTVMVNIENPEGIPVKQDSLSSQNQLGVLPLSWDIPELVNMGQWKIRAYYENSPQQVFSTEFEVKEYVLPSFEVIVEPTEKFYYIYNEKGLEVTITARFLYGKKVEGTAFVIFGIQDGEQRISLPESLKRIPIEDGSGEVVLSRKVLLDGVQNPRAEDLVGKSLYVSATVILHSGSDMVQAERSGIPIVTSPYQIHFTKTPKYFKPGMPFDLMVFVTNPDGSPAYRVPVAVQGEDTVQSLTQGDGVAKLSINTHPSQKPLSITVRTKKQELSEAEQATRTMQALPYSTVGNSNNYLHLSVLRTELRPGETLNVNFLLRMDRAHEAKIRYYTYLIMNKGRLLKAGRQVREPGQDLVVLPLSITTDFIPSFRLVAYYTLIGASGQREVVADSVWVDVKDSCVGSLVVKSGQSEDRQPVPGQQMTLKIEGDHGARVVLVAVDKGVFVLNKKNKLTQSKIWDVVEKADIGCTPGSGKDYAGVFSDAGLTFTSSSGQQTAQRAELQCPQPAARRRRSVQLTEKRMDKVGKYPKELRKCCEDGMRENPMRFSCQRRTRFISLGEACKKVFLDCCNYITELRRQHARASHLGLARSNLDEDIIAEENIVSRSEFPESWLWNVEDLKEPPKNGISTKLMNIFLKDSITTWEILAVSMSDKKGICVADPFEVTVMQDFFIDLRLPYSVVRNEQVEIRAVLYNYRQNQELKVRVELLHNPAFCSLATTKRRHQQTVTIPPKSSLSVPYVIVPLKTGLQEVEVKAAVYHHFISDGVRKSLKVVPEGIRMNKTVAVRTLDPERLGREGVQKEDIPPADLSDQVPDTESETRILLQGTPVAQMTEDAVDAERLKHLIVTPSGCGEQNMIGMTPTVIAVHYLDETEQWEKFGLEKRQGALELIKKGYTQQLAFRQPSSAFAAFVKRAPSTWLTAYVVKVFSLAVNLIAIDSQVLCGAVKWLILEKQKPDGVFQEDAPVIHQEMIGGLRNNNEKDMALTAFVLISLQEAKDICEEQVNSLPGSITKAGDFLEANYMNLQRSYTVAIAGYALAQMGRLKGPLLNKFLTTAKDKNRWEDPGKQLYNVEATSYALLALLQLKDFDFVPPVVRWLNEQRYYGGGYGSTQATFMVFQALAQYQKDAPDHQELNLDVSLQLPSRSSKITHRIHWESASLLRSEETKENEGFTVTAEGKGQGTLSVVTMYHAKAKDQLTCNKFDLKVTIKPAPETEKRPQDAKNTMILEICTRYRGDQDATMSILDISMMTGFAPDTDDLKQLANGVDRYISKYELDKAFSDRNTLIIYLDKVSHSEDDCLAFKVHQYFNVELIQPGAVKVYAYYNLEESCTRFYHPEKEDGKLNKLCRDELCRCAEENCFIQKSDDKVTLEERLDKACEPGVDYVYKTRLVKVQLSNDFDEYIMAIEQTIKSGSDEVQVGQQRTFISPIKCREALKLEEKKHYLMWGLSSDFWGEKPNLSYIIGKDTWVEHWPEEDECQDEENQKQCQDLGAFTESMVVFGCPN
C3 convertase complex, sequence (P00751 260-764, chain 2 of 2): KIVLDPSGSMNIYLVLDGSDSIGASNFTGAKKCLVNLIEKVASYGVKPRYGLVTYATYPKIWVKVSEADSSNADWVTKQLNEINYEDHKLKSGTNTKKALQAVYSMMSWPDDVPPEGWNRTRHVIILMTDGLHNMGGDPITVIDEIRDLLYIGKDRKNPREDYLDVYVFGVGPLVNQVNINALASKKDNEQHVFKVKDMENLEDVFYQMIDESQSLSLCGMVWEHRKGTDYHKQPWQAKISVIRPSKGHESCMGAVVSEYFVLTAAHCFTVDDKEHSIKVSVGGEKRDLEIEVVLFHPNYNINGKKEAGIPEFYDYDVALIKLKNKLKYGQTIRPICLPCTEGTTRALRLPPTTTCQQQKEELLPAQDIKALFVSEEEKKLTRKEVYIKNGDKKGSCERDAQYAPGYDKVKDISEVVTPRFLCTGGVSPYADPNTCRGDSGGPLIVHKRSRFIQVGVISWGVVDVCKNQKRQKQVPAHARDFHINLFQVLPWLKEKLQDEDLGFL

C3 convertase activity % of the control | C3 convertase activity IC50 | Binder
61 % of the control | 0.645 µg/mL | pCEP4-1NT8-14CT20 (other) EDCNELPPRRNTEILTGSWSDQTYPEGTQAIYKCRPGYRSLGNVIMVCRKGEWVALNPLRKCQKRPCGHPGDTPFGTFTLTGGNVFEYGVKAVYTCNEGYQLLGEINYRECDTDGWTNDIPICEVVKCLPVTAPENGKIVSSAMEPDREYHFGQAVRFVCNSGYKIEGDEEMHCSDDGFWSKEKPKCVEISCKSPDVINGSPISQKIIYKENERFQYKCNMGYEYSERGDAVCTESGWRPLPSCEEKSCDNPYIPNGDYSPLRIKHRTGDEITYQCRNGFYPATRGNTAKCTSTGWIPAPRCTLKPCDYPDIKHGGLYHENMRRPYFPVAVGKYYSYYCDEHFETPSGSYWDHIHCTQDGWSPAVPCLRKCYFPYLENGYNQNHGRKFVQGKSIDVACHPGYALPKAQTTVTCMENGWSPTPRCIRVKTCSKSSIDIENGFISESQYTYALKEKAKYQCKLGYVTADGETSGSITCGKDGWSAQPTCIKSGASGCPPPPQIPNSHNMTTTLNYRDGEKVSVLCQENYLIQEGEEITCKDGRWQSIPLCVEKIPCSQPPQIEHGTINSSRSSQESYAHGTKLSYTCEGGFRISEENETTCYMGKWSSPPQCEGLPCKSPPEISHGVVAHMSDSYQYGEEVTYKCFEGFGIDGPAIAKCLGEKWSHPPSCIKTDCLSLPSFENAIPMGEKKDVYKAGEQVTYTCATYYKMDGASNVTCINSRWTGRPTCRDTSCVNPPTVQNAYIVSRQMSKYPSGERVRYQCRSPYEMFGDEEVMCLNGNWTEPPQCKDSTGKCGPPPPIDNGDITSFPLSVYAPASSVEYQCQNLYQLEGNKRITCRNGQWSEPPKCLHPCVISREIMENYNIALRWTAKQKLYSRTGESVEFVCKRGYRLSSRSHTLRTTCWDGKLEYPTCAKRGGSGHHHHHH
64 % of the control | 0.552 µg/mL | pCEP4-1NT9-10CT20 (other) EDCNELPPRRNTEILTGSWSDQTYPEGTQAIYKCRPGYRSLGNVIMVCRKGEWVALNPLRKCQKRPCGHPGDTPFGTFTLTGGNVFEYGVKAVYTCNEGYQLLGEINYRECDTDGWTNDIPICEVVKCLPVTAPENGKIVSSAMEPDREYHFGQAVRFVCNSGYKIEGDEEMHCSDDGFWSKEKPKCVEISCKSPDVINGSPISQKIIYKENERFQYKCNMGYEYSERGDAVCTESGWRPLPSCEEKSCDNPYIPNGDYSPLRIKHRTGDEITYQCRNGFYPATRGNTAKCTSTGWIPAPRCTLKPCDYPDIKHGGLYHENMRRPYFPVAVGKYYSYYCDEHFETPSGSYWDHIHCTQDGWSPAVPCLRKCYFPYLENGYNQNYGRKFVQGKSIDVACHPGYALPKAQTTVTCMENGWSPTPRCIRVKTCSKSSIDIENGFISESQYTYALKEKAKYQCKLGYVTADGETSGSITCGKDGWSAQPTCIKSCDIPVFMNARTKNDFTWFKLNDTLDYECHDGYESNTGSTTGSIVCGYNGWSDLPICYEREGASGCELPKIDVHLVPDRKKDQYKVGEVLKFSCKPGFTIVGPNSVQCYHFGLSPDLPICKEQVQSCGPPPELLNGNVKEKTKEEYGHSEVVEYYCNPRFLMKGPNKIQCVDGEWTTLPVCIVEESTCGDIPELEHGWAQLSSPPYYYGDSVEFNCSESFTMIGHRSITCIHGVWTQLPQCVAIDKLKKCKSSNLIILEEHLKNKKEFDHNSNIRYRCRGKEGWIHTVCINGRWDPEVNCSMAQIQLCPPPPQIPNSHNMTTTLNYRDGEKVSVLCQENYLIQEGEEITCKDGRWQSIPLCVEKIPCSQPPQIEHGTINSSRSSQESYAHGTKLSYTCEGGFRISEENETTCYMGKWSSPPQCEGLPCKSPPEISHGVVAHMSDSYQYGEEVTYKCFEGFGIDGPAIAKCLGEKWSHPPSCIKTDCLSLPSFENAIPMGEKKDVYKAGEQVTYTCATYYKMDGASNVTCINSRWTGRPTCRDTSCVNPPTVQNAYIVSRQMSKYPSGERVRYQCRSPYEMFGDEEVMCLNGNWTEPPQCKDSTGKCGPPPPIDNGDITSFPLSVYAPASSVEYQCQNLYQLEGNKRITCRNGQWSEPPKCLHPCVISREIMENYNIALRWTAKQKLYSRTGESVEFVCKRGYRLSSRSHTLRTTCWDGKLEYPTCAKRGGSGHHHHHH
64 % of the control | 0.57 µg/mL | pCEP4-1NT9-14CT20 (other) EDCNELPPRRNTEILTGSWSDQTYPEGTQAIYKCRPGYRSLGNVIMVCRKGEWVALNPLRKCQKRPCGHPGDTPFGTFTLTGGNVFEYGVKAVYTCNEGYQLLGEINYRECDTDGWTNDIPICEVVKCLPVTAPENGKIVSSAMEPDREYHFGQAVRFVCNSGYKIEGDEEMHCSDDGFWSKEKPKCVEISCKSPDVINGSPISQKIIYKENERFQYKCNMGYEYSERGDAVCTESGWRPLPSCEEKSCDNPYIPNGDYSPLRIKHRTGDEITYQCRNGFYPATRGNTAKCTSTGWIPAPRCTLKPCDYPDIKHGGLYHENMRRPYFPVAVGKYYSYYCDEHFETPSGSYWDHIHCTQDGWSPAVPCLRKCYFPYLENGYNQNYGRKFVQGKSIDVACHPGYALPKAQTTVTCMENGWSPTPRCIRVKTCSKSSIDIENGFISESQYTYALKEKAKYQCKLGYVTADGETSGSITCGKDGWSAQPTCIKSCDIPVFMNARTKNDFTWFKLNDTLDYECHDGYESNTGSTTGSIVCGYNGWSDLPICYEREGASGCPPPPQIPNSHNMTTTLNYRDGEKVSVLCQENYLIQEGEEITCKDGRWQSIPLCVEKIPCSQPPQIEHGTINSSRSSQESYAHGTKLSYTCEGGFRISEENETTCYMGKWSSPPQCEGLPCKSPPEISHGVVAHMSDSYQYGEEVTYKCFEGFGIDGPAIAKCLGEKWSHPPSCIKTDCLSLPSFENAIPMGEKKDVYKAGEQVTYTCATYYKMDGASNVTCINSRWTGRPTCRDTSCVNPPTVQNAYIVSRQMSKYPSGERVRYQCRSPYEMFGDEEVMCLNGNWTEPPQCKDSTGKCGPPPPIDNGDITSFPLSVYAPASSVEYQCQNLYQLEGNKRITCRNGQWSEPPKCLHPCVISREIMENYNIALRWTAKQKLYSRTGESVEFVCKRGYRLSSRSHTLRTTCWDGKLEYPTCAKRGGSGHHHHHH
72 % of the control | 0.542 µg/mL | pCEP4-1NT7-8CT20 (other) EDCNELPPRRNTEILTGSWSDQTYPEGTQAIYKCRPGYRSLGNVIMVCRKGEWVALNPLRKCQKRPCGHPGDTPFGTFTLTGGNVFEYGVKAVYTCNEGYQLLGEINYRECDTDGWTNDIPICEVVKCLPVTAPENGKIVSSAMEPDREYHFGQAVRFVCNSGYKIEGDEEMHCSDDGFWSKEKPKCVEISCKSPDVINGSPISQKIIYKENERFQYKCNMGYEYSERGDAVCTESGWRPLPSCEEKSCDNPYIPNGDYSPLRIKHRTGDEITYQCRNGFYPATRGNTAKCTSTGWIPAPRCTLKPCDYPDIKHGGLYHENMRRPYFPVAVGKYYSYYCDEHFETPSGSYWDHIHCTQDGWSPAVPCLRKCYFPYLENGYNQNYGRKFVQGKSIDVACHPGYALPKAQTTVTCMENGWSPTPRCIRVKTGASGCSKSSIDIENGFISESQYTYALKEKAKYQCKLGYVTADGETSGSITCGKDGWSAQPTCIKSCDIPVFMNARTKNDFTWFKLNDTLDYECHDGYESNTGSTTGSIVCGYNGWSDLPICYERECELPKIDVHLVPDRKKDQYKVGEVLKFSCKPGFTIVGPNSVQCYHFGLSPDLPICKEQVQSCGPPPELLNGNVKEKTKEEYGHSEVVEYYCNPRFLMKGPNKIQCVDGEWTTLPVCIVEESTCGDIPELEHGWAQLSSPPYYYGDSVEFNCSESFTMIGHRSITCIHGVWTQLPQCVAIDKLKKCKSSNLIILEEHLKNKKEFDHNSNIRYRCRGKEGWIHTVCINGRWDPEVNCSMAQIQLCPPPPQIPNSHNMTTTLNYRDGEKVSVLCQENYLIQEGEEITCKDGRWQSIPLCVEKIPCSQPPQIEHGTINSSRSSQESYAHGTKLSYTCEGGFRISEENETTCYMGKWSSPPQCEGLPCKSPPEISHGVVAHMSDSYQYGEEVTYKCFEGFGIDGPAIAKCLGEKWSHPPSCIKTDCLSLPSFENAIPMGEKKDVYKAGEQVTYTCATYYKMDGASNVTCINSRWTGRPTCRDTSCVNPPTVQNAYIVSRQMSKYPSGERVRYQCRSPYEMFGDEEVMCLNGNWTEPPQCKDSTGKCGPPPPIDNGDITSFPLSVYAPASSVEYQCQNLYQLEGNKRITCRNGQWSEPPKCLHPCVISREIMENYNIALRWTAKQKLYSRTGESVEFVCKRGYRLSSRSHTLRTTCWDGKLEYPTCAKRGGSGHHHHHH
69 % of the control | 0.172 µg/mL | pCEP4-1NT9-11CT20 (other) EDCNELPPRRNTEILTGSWSDQTYPEGTQAIYKCRPGYRSLGNVIMVCRKGEWVALNPLRKCQKRPCGHPGDTPFGTFTLTGGNVFEYGVKAVYTCNEGYQLLGEINYRECDTDGWTNDIPICEVVKCLPVTAPENGKIVSSAMEPDREYHFGQAVRFVCNSGYKIEGDEEMHCSDDGFWSKEKPKCVEISCKSPDVINGSPISQKIIYKENERFQYKCNMGYEYSERGDAVCTESGWRPLPSCEEKSCDNPYIPNGDYSPLRIKHRTGDEITYQCRNGFYPATRGNTAKCTSTGWIPAPRCTLKPCDYPDIKHGGLYHENMRRPYFPVAVGKYYSYYCDEHFETPSGSYWDHIHCTQDGWSPAVPCLRKCYFPYLENGYNQNHGRKFVQGKSIDVACHPGYALPKAQTTVTCMENGWSPTPRCIRVKTCSKSSIDIENGFISESQYTYALKEKAKYQCKLGYVTADGETSGSITCGKDGWSAQPTCIKSCDIPVFMNARTKNDFTWFKLNDTLDYECHDGYESNTGSTTGSIVCGYNGWSDLPICYEREGASGCGPPPELLNGNVKEKTKEEYGHSEVVEYYCNPRFLMKGPNKIQCVDGEWTTLPVCIVEESTCGDIPELEHGWAQLSSPPYYYGDSVEFNCSESFTMIGHRSITCIHGVWTQLPQCVAIDKLKKCKSSNLIILEEHLKNKKEFDHNSNIRYRCRGKEGWIHTVCINGRWDPEVNCSMAQIQLCPPPPQIPNSHNMTTTLNYRDGEKVSVLCQENYLIQEGEEITCKDGRWQSIPLCVEKIPCSQPPQIEHGTINSSRSSQESYAHGTKLSYTCEGGFRISEENETTCYMGKWSSPPQCEGLPCKSPPEISHGVVAHMSDSYQYGEEVTYKCFEGFGIDGPAIAKCLGEKWSHPPSCIKTDCLSLPSFENAIPMGEKKDVYKAGEQVTYTCATYYKMDGASNVTCINSRWTGRPTCRDTSCVNPPTVQNAYIVSRQMSKYPSGERVRYQCRSPYEMFGDEEVMCLNGNWTEPPQCKDSTGKCGPPPPIDNGDITSFPLSVYAPASSVEYQCQNLYQLEGNKRITCRNGQWSEPPKCLHPCVISREIMENYNIALRWTAKQKLYSRTGESVEFVCKRGYRLSSRSHTLRTTCWDGKLEYPTCAKRGGSGHHHHHH
